Laboratory results: patent US20010025379A1

Columns and labels:
Assay in all cases: yeast two-hybrid, liquid β-galactosidase quantification
[1] = target: ATMAP2 in the GAL4 DNA-binding domain vector (yeast two-hybrid fusion) (Arabidopsis thaliana)
[2] = target: Cdc2a in the GAL4 DNA-binding domain vector (yeast two-hybrid fusion) (Arabidopsis thaliana)
[3] = target: Cdc2b in the GAL4 DNA-binding domain vector (yeast two-hybrid fusion) (Arabidopsis thaliana)
[4] = target: DB-vector alone (GAL4 DNA-binding domain without insert), control (UniProt P04386)
[5] = target: PCNAAt in the GAL4 DNA-binding domain vector (yeast two-hybrid fusion) (Arabidopsis thaliana)
[6] = target: cycA2;2 in the GAL4 DNA-binding domain vector (yeast two-hybrid fusion) (Arabidopsis thaliana)
[7] = target: cycB1;1 in the GAL4 DNA-binding domain vector (yeast two-hybrid fusion) (Arabidopsis thaliana)
[8] = target: cycB2;2 in the GAL4 DNA-binding domain vector (yeast two-hybrid fusion) (Arabidopsis thaliana)
[9] = target: cycD1;1 in the GAL4 DNA-binding domain vector (yeast two-hybrid fusion) (Arabidopsis thaliana)
[10] = target: cycD2;1 in the GAL4 DNA-binding domain vector (yeast two-hybrid fusion) (Arabidopsis thaliana)
[11] = target: cycD3;1 in the GAL4 DNA-binding domain vector (yeast two-hybrid fusion / bait) (Arabidopsis thaliana)

Quantification [1]: 0
Quantification [2]: 2.65
Quantification [3]: 0
Quantification [4]: 0
Quantification [5]: 0
Quantification [6]: 0.03
Quantification [7]: 0.06
Quantification [8]: 0.05
Quantification [9]: 3.13
Quantification [10]: 14.8
Quantification [11]: 22.7
Substance: ICK1 in a GAL4-activation domain vector (yeast two-hybrid fusion) (from UniProt P04386 768-881)
